In publication PMC5578693, “The role of the C-terminal D0 domain of flagellin in activation of Toll like receptor 5” (PLoS Pathogens, 2017):

B1: S. typhimurium flagellin FliC, wild type (natural protein, UniProt P06179 1-495, looked up)
chain: MAQVINTNSLSLLTQNNLNKSQSALGTAIERLSSGLRINSAKDDAAGQAIANRFTANIKGLTQASRNANDGISIAQTTEGALNEINNNLQRVRELAVQSANSTNSQSDLDSIQAEITQRLNEIDRVSGQTQFNGVKVLAQDNTLTIQVGANDGETIDIDLKQINSQTLGLDTLNVQQKYKVSDTAATVTGYADTTIALDNSTFKASATGLGGTDQKIDGDLKFDDTTGKYYAKVTVTGGTGKDGYYEVSVDKTNGEVTLAGGATSPLTGGLPATATEDVKNVQVANADLTEAKAALTAAGVTGTASVVKMSYTDNNGKTIDGGLAVKVGDDYYSATQNKDGSISINTTKYTADDGTSKTALNKLGGADGKTEVVSIGGKTYAASKAEGHNFKAQPDLAEAAATTTENPLQKIDAALAQVDTLRSDLGAVQNRFNSAITNLGNTVNNLTSARSRIEDSDYATEVSNMSRAQILQQAGTSVLAQANQVPQNVLSLLR
notes: flagellin FliC of S. typhimurium (SaTy), UniProt P06179; cloned into pET19b; also called SaTy; wild-type flagellin; source: E. coli BL21 (DE3) pLysS, purified (Ni-NTA); not shown: His10, N-terminal, kept

What was measured:
[1] = biological target: soluble hTLR5 ectodomain fused to the Fc region of human IgG1 (human) (UniProt O60602)
soluble hTLR5 ectodomain fused to the Fc region of human IgG1 (human), sequence (O60602 21-639): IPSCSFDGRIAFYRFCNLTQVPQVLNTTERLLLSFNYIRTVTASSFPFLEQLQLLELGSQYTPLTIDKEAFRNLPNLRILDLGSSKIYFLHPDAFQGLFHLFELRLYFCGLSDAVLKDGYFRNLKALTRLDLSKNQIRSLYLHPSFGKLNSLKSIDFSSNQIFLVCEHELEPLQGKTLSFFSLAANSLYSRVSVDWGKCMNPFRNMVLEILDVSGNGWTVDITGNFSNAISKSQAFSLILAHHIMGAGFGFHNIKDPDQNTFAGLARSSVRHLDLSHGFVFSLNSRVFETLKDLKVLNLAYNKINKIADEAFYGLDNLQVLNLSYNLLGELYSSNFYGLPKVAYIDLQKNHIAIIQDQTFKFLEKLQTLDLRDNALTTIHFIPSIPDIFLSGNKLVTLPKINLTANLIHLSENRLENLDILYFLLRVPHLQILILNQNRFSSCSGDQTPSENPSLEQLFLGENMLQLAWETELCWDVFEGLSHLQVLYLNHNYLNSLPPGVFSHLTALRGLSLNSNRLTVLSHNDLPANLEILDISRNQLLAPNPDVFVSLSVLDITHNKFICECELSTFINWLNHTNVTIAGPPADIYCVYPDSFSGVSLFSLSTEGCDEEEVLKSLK

[2] = biological target: T1, soluble hTLR5 ectodomain fused to the Fc region of human IgG1 (human, UniProt O60602 21-639); assay: co-IP; 10 ug hTLR5-Fc bound to protein A-coupled Dynabeads (control: beads with water only); 20 ug wt or mutant flagellin added, 1 h at room temperature; washed 3 times with 1 x PBS, 0.02% Tween 20, pH 7.5; eluted in 0.1% SDS at 95 C; flagellin detected by Western blot with anti-His antibodies; conditions: both partners purified
T1 construct: human Toll-like receptor 5, ectodomain; UniProtKB O60602; In the functional rows this molecule stands for human TLR5, which was there full length on HEK293 cells (pUNO-hTLR5) or endogenous in A549 cells; also called hTLR5-Fc; source: bought: Invivogen
T1 sequence (O60602 21-639): as above

Molecule | TLR5 activation: NF-kB reporter in A549 cells (SEAP) and in hTLR5-transfected HEK293 cells (luciferase, 0-1000 ng/ml); lowest active concentration [1] | binding result [2]
dimSFΔD0, two SFΔD0 domains tethered into a single polypeptide chain by a 27 amino acid peptide linker | 50 ng/mL | 
B1 |  | binds
